Positions count from the first letter of the chain named. Numbers in names are those of the source.

The term Km denotes the concentration of substrate that gives half-maximal velocity. Broadly, the kcat is the maximal rate divided by the concentration of active sites. By kcat/Km is commonly meant the turnover number divided by the Michaelis constant.

First the molecules themselves.
B1: GFAT-1 (human GFAT-1 isoform 2, hGFAT1) (Homo sapiens; R306H) (protein)
chain: CGIFAYLNYHVPRTRREILETLIKGLQRLEYRGYDSAGVGFDGGNDKDWEANACKIQLIKKKGKVKALDEEVHKQQDMDLDIEFDVHLGIAHTRWATHGEPSPVNSHPQRSDKNNEFIVIHNGIITNYKDLKKFLESKGYDFESETDTETIAKLVKYMYDNRESQDTSFTTLVERVIQQLEGAFALVFKSVHFPGQAVGTRRGSPLLIGVRSEHKLSTDHIPILYRTGKDKKGSCNLSRVDSTTCLFPVEEKAVEYYFASDASAVIEHTNRVIFLEDDDVAAVVDGHLSIHRIKRTAGDHPGRAVQTLQMELQQIMKGNFSSFMQKEIFEQPESVVNTMRGRVNFDDYTVNLGGLKDHIKEIQRCRRLILIACGTSYHAGVATRQVLEELTELPVMVELASDFLDRNTPVFRDDVCFFLSQSGETADTLMGLRYCKERGALTVGITNTVGSSISRETDCGVHINAGPEIGVASTKAYTSQFVSLVMFALMMCDDRISMQERRKEIMLGLKRLPDLIKEVLSMDDEIQKLATELYHQKSVLIMGRGYHYATCLEGALKIKEITYMHSEGILAGELKHGPLALVDKLMPVIMIIMRDHTYAKCQNALQQVVARQGRPVVICDKEDTETIKNTKRTIKVPHSVDCLQGILSVIPLQLLAFHLAVLRGYDVDFPRNLAKSVTVE
notes: full length, internal His6-tag between Gly299 and Asp300 (kept), expressed in Sf21 insect cells (MultiBac), Ni-NTA and SEC purified
B2: GFAT-1 (human GFAT-1 isoform 2, hGFAT1) (Homo sapiens; S308D) (protein)
chain: B1 chain with H287R, S289D
notes: as for B1
B3: GFAT-1 (human GFAT-1 isoform 2, hGFAT1) (Homo sapiens; L508R) (protein)
chain: B1 chain with H287R, L489R
notes: as for B1

Substrate in the data set: NC(=O)CC[C@H](N)C(=O)O
In words: purified protein. Type of data set: biochemical, Homo sapiens. The settings on record: 6 mM Frc6P, 1 mM APAD, 50 mM KCl, 100 mM potassium phosphate pH 7.5, 37 °C.
B1: the Michaelis-Menten constant (Km) was determined as 1600 ± 270 µM, the kcat was 4.8 ± 0.26 s⁻¹ and the catalytic efficiency (kcat/Km) amounted to 3000 M⁻¹ s⁻¹.
B2: the Km came out at 1300 ± 230 µM, the kcat was determined as 1.5 ± 0.08 s⁻¹ and the kcat/Km was determined as 1200 M⁻¹ s⁻¹.
On to B3, for which the Michaelis-Menten constant (Km) was found to be 1000 ± 100 µM, the catalytic constant (kcat) stood at 3 ± 0.08 s⁻¹ and the kcat/Km is 3000 M⁻¹ s⁻¹.
